Laboratory results: publication PMC7385938 (Cell Stress & Chaperones, 2020)

Target: the molecule itself
Assay: non-reducing LDS-PAGE of proteoliposomes

Protein	stoichiometry N	binding result
HSPA5-N (N-terminal end domain of HSPA5) (domain or fragment) not shown	2	
HSPA1-N (N-terminal end domain of HSPA1) (domain or fragment) not shown		binds
HSPA5-FL (full-length human HSPA5 without the leading signal peptide for ER translocation) (natural protein) not shown		binds
